Tested on: poly-L-lysine (PLL, 30-70 kDa, Sigma P2636)
Assay: EMSA
Conditions: 10 mM Tris pH 7.5, 100 mM KCl, 5% glycerol, 30 min at room temperature

Sequence: TTAGAATTAGAATTAGAATTAGAA [dTERRA_M2 [TTAGAA]4]
- Kd: 34 nM

Sequence: UUAGAAUUAGAAUUAGAAUUAGAA [rTERRA_M2 [UUAGAA]4]
- Kd: 7.4 nM

From publication doi:10.1101/2025.06.23.656378
